The source of these data is US20250115641A1 (published 2025).

Bridge positions count the residues as written; N and C are the ends. Square brackets hold non-standard residues; d marks the D form. Primed or numbered codes have the meaning given here. S5 = C=CCCC[C@](C)(N)C(=O)O; Nle = CCCC[C@H](N)C(=O)O; FITC′ = fluorescein; βAla = NCCC(=O)O Where only a bound is given, the exact number is not on record here.

For orientation: Kd means the equilibrium constant for the complex coming apart. Low values mean higher affinity, high ones lower affinity.

B1: fSAH-POP1-5 (peptide)
peptide: AQXLKKXKXKLGTA
modifications: N-terminal fluorescein (FITC) on β-alanine; S5 = (S)-2-(4-pentenyl)alanine residues covalently linked (hydrocarbon staple); made on Rink amide resin
B2: fSAH-POP1-4 (peptide)
peptide: AEXLKKXKXKLGTV
modifications: N-terminal fluorescein (FITC) on β-alanine; S5 = (S)-2-(4-pentenyl)alanine residues covalently linked (hydrocarbon staple); made on Rink amide resin
B3: fSAH-POP1-6 (peptide)
peptide: XQXLKKXKXKLWTA
modifications: N-terminal fluorescein (FITC) on β-alanine; S5 = (S)-2-(4-pentenyl)alanine residues covalently linked (hydrocarbon staple); made on Rink amide resin
B4: fSAH-POP1-10 (peptide)
peptide: AQXLRKXQXKLWTA
modifications: not fully specified; N-terminal fluorescein (FITC) on β-alanine; S5 = (S)-2-(4-pentenyl)alanine residues covalently linked (hydrocarbon staple); norleucine (NL) at the position of M25 of POP1; made on Rink amide resin

For the first assay, the target named is T1, human NLRP3^PYD (residues 3-110, C-terminal 6 x histidine) (human, UniProt Q96P20 3-110).
T1 chain: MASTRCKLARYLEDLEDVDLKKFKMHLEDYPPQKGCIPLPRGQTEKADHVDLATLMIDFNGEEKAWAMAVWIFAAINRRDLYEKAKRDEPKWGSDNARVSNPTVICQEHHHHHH
Put plainly: FP.
Regarding {FITC′}-[βAla]EELKKFK[Nle]KLGTV-NH2 [fPOP1-H2], the Kd was 9.2 µM.

The target in another assay is T2, human N-terminally GST tagged ASC^PYD (human, UniProt Q9ULZ3 1-106). The assay can be described thus: FP.
T2 sequence (Q9ULZ3 1-106): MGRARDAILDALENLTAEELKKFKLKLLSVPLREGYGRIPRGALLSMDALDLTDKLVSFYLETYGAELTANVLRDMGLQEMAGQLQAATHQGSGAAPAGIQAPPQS
The molecule {FITC′}-[βAla]Q[S5]LRK[S5]QWKLWTA-NH2 (staple 3-7) [fSAH-POP1-12] registered a Kd of 0.59 µM.

Consider B1, for which the Kd is > 10 µM.

On to {FITC′}-[βAla]EELKKFK[Nle]KLGTV-NH2 [fPOP1-H2], for which the Kd was > 10 µM.

With B2, the Kd is > 10 µM.

Another assay concerns the target GST-NLRP3PYD. Put plainly: fluorescence anisotropy. For orientation: In fluorescence polarisation assays a small probe gives low polarisation when free and higher when bound to something large.
With B3, binding was put at a Kd of 43 µM.

On to {FITC′}-[βAla]Q[S5]LRK[S5]QWKLWTA-NH2 (staple 3-7) [fSAH-POP1-12], for which the affinity, expressed as Kd, was 20 µM.

B1: the Kd was 30 µM.

B4 registered a dissociation constant Kd of 31 µM.

{FITC′}-[βAla]Q[S5]LRR[S5]QWKLWTA-NH2 (staple 3-7) [fSAH-POP1-13]: the affinity, expressed as Kd, was 12 µM.

The molecule {FITC′}-[βAla]EELKKFK[Nle]KLGTV-NH2 [fPOP1-H2] showed a Kd of 27 µM.

With {FITC′}-[βAla]Q[S5]LRR[S5]QWKLWTS-NH2 (staple 3-7) [fSAH-POP1-16], binding was characterised by a dissociation constant (Kd) of 15 µM.

For B2, binding was put at a Kd of 32 µM.

The next assay concerns the target T2, human N-terminally GST tagged ASC^PYD. The assay can be described thus: fluorescence anisotropy.
On to B3, for which the Kd is > 56 µM.

In the case of B1, the Kd is > 56 µM.

With B4, the Kd was > 56 µM.

With {FITC′}-[βAla]EELKKFK[Nle]KLGTV-NH2 [fPOP1-H2], the Kd is > 56 µM.

B2: the Kd is > 56 µM.
